Here are results for one substance from article PMC11889166.

Test [1] has as its target EYFP-CD74minRTS (pEYFP-C1-CD74minRTS) (human) (UniProt P04233). Nature of the test: FRET or BRET; FLIM-FRET (TCSPC, two-photon microscope, FALCON) in fixed Huh-7 cells co-transfected with ECFP-CXCR4 (donor) and EYFP-CD74 (acceptor); donor-alone lifetime 2.52 ns used; also with MIF-2 stimulation before fixation (FRET efficiency increased).
Test [2] has the same target. Nature of the test: FRET or BRET; FLIM-FRET (TCSPC, two-photon microscope, FALCON) in fixed HEK293 cells co-transfected with ECFP-CXCR4 (donor) and EYFP-CD74 (acceptor).
For test [3] the target is unchanged. Nature of the test: FRET or BRET; FLIM-FRET in live HEK293 cells co-transfected with ECFP-CXCR4 and EYFP-CD74, monitored at one-minute intervals during exposure to MIF-2 (4 nM, 10 min, 37 °C); MIF (8 nM) as comparison reduced the lifetime to a lesser extent.

Sequence of UniProt P04233 (P04233 whole entry): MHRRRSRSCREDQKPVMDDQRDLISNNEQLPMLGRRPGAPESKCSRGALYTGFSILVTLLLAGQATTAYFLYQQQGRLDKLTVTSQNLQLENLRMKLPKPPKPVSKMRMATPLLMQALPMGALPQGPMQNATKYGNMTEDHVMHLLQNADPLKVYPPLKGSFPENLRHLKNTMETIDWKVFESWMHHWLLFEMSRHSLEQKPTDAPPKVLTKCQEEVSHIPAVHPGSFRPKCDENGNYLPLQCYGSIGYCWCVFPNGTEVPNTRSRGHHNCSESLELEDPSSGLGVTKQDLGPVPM

With “ECFP-tagged CXCR4 (pECFP-N1-CXCR4) (from UniProt P61073 1-352) (receptor)”, the FRET efficiency was 17 to 20% in test [1] and 50% in test [2]. Moreover, the fluorescence lifetime of the donor ECFP-CXCR4 with the acceptor, after MIF-2 stimulation in test [3] is 2 ns.
